Data taken from patent US7067713.

Biological target: C1s (Kordia, The Netherlands/Enzyme Research Lab. Inc., USA) (UniProt P09871)
Assay: cell-based or functional assay

UniProt P09871, sequence (P09871 16-688 limits assumed): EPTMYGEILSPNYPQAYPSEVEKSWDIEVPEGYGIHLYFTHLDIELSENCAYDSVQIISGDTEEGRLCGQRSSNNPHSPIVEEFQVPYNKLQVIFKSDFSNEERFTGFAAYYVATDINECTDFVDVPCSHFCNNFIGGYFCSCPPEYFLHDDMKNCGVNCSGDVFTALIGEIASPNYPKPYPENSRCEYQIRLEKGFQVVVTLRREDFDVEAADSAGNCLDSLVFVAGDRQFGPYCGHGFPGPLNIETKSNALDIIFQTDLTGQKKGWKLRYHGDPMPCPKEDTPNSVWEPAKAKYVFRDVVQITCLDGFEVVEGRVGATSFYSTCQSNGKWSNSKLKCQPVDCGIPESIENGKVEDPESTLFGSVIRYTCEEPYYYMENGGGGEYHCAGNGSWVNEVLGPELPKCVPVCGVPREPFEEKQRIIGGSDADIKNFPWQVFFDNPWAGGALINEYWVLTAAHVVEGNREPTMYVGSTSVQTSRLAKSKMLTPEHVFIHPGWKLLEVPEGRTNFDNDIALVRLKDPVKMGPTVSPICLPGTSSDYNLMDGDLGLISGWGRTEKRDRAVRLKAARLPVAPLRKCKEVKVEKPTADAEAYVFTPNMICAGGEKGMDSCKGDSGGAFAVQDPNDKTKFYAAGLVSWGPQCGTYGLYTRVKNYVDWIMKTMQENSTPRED

Row | functionality index (F.I.): ratio between functionally active C1 inhibitor (C1s inhibition test) and total C1 inhibitor antigen | Substance
1 | 0.91 | recombinant human C1 inhibitor purified from milk of transgenic rabbit line 2977q (from UniProt P05155 23-500)
2 | 1.07 | Cetor (C1 inhibitor purified from pooled human plasma, CLB, The Netherlands) (from UniProt P05155 23-500)
3 | 1.15 | recombinant human C1 inhibitor purified from milk of transgenic rabbit line 2972p (from UniProt P05155 23-500)
4 | 1.07 | recombinant human C1 inhibitor purified from milk of transgenic rabbit line 2972q (from UniProt P05155 23-500)
